# Measured values reported in PMC3779078 (Molecular reproduction and development, 2009).
# How the values were obtained:
# Experiment in all cases: PAGE under mildly denaturing conditions with Western blot
# [1] = target: Izumo 1 N-terminal domain (N), recombinant (mouse)
# [2] = target: Izumo domain of Izumo 3, recombinant (mouse)
# [3] = target: the molecule itself
molecule,measurement,setting,value
"Izumo 1 N-terminal domain (N), recombinant (domain or fragment)",stoichiometry N,[1],2
"Izumo domain of Izumo 3, recombinant (domain or fragment)",stoichiometry N,[2],2
"Izumo 1 entire extracellular domain (N-Ig), recombinant (domain or fragment, mouse, UniProt Q9D9J7 22-319, looked up) CIKCDQFVTDALKTFENTYLNDHLPHDIHKNVMRMVNHEVSSFGVVTSAEDSYLGAVDENTLEQATWSFLKDLKRITDSDLKGELFIKELLWMLRHQKDIFNNLARQFQKEVLCPNKCGVMSQTLIWCLKCEKQLHICRKSLDCGERHIEVHRSEDLVLDCLLSWHRASKGLTDYSFYRVWENSSETLIAKGKEPYLTKSMVGPEDAGNYRCVLDTINQGHATVIRYDVTVLPPKHSEENQPPNIITQEEHETPVHVTPQTPPGQEPESELYPELHPELYPELIPTVAQNPEKKMKTR",stoichiometry N,[3],2
